Measured values from the supplement of paper PMC6755084.

B1: F1*; a variant is named by its letters at N, in order (parent)
chain: GAGACCGCAACTGAAAAGTTGTTATCNNNNNNNNAANNNNNTTNGNNGGGTTGAAGTTCTGCACGTAGAAGCAAAAGGC

Variants of: B1
Experiment: fraction ligated after 30 min (ligated reads / total reads); higher = more ligase activity
Settings: with F1*sub RNA substrate (template-directed ligation), 42 °C
Procedure: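 Chip-synthesised pool of F1* ligase ribozyme variants (all single and double substitutions, single, double and triple deletions in the catalytic core and GAA bulge, plus designed variants) was transcribed with T7 and reacted as a pool with excess substrate F1*sub for 30 min at 42 C in 50 mM EPPS pH 8.5, 25 mM MgCl2. Ligated and unligated bands were separated by PAGE, barcoded by RT and deep sequenced; fraction ligated = ligated reads / total reads per variant, relative activity = FL / FL of wild type (0.826). Sequences are the DNA template of the ribozyme.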

Variant | fraction ligated
GAGACCGCAACTGAAAAGTTGTTATCACTTTCGTAAGACACTTTGGAGGGTTGAAGTTCTGCACGTAGAAGCAAAAGGC | 0.0557
GAGACCGCAACTGAAAAGTTGTTATCACTGTCGTAAGACATTTGGATGGGTTGAAGTTCTGCACGTAGAAGCAAAAGGC | 0.846
GAGACCGCAACTGAAAAGTTGTTATCACTTGTCGAAGACATTTGGATGGGTTGAAGTTCTGCACGTAGAAGCAAAAGGC | 0.831
GAGACCGCAACTGAAAAGTTGTTATCACTTGTGTAAGACACTTTGGTGGGTTGAAGTTCTGCACGTAGAAGCAAAAGGC | 0.0697
GAGACCGCAACTGAAAAGTTGTTATCACTTGTGTAAGACACTTTGGAGGGTTGAAGTTCTGCACGTAGAAGCAAAAGGC | 0.0628
GAGACCGCAACTGAAAAGTTGTTATCACTTGTGTAAGACCTTTGGATGGGTTGAAGTTCTGCACGTAGAAGCAAAAGGC | 0.844
GAGACCGCAACTGAAAAGTTGTTATCACTTGCGTAAGCACTTTGGATGGGTTGAAGTTCTGCACGTAGAAGCAAAAGGC | 0.856
GAGACCGCAACTGAAAAGTTGTTATCACTGTCGTAAGCACTTTGGATGGGTTGAAGTTCTGCACGTAGAAGCAAAAGGC | 0.833
GAGACCGCAACTGAAAAGTTGTTATCACTTGTCGAAGACACTTGGATGGGTTGAAGTTCTGCACGTAGAAGCAAAAGGC | 0.775
GAGACCGCAACTGAAAAGTTGTTATCATTGTCGTAAGACACTTTGGAGGGTTGAAGTTCTGCACGTAGAAGCAAAAGGC | 0.12
GAGACCGCAACTGAAAAGTTGTTATCATTGTCGTAAGACACTTTGGTGGGTTGAAGTTCTGCACGTAGAAGCAAAAGGC | 0.583
GAGACCGCAACTGAAAAGTTGTTATCATTGTCGTAAGACATTTGGATGGGTTGAAGTTCTGCACGTAGAAGCAAAAGGC | 0.811
GAGACCGCAACTGAAAAGTTGTTATCACTTGTCGAAGACACTTTGGAGGGTTGAAGTTCTGCACGTAGAAGCAAAAGGC | 0.15
GAGACCGCAACTGAAAAGTTGTTATCACTTGTCGAAGACACTTTGGTGGGTTGAAGTTCTGCACGTAGAAGCAAAAGGC | 0.236
GAGACCGCAACTGAAAAGTTGTTATCACTGTCGTAAGACCTTTGGATGGGTTGAAGTTCTGCACGTAGAAGCAAAAGGC | 0.849
GAGACCGCAACTGAAAAGTTGTTATCCTTGTCGTAAGACATTTGGATGGGTTGAAGTTCTGCACGTAGAAGCAAAAGGC | 0.794
GAGACCGCAACTGAAAAGTTGTTATCACTTGTCGAAGACCTTTGGATGGGTTGAAGTTCTGCACGTAGAAGCAAAAGGC | 0.801
GAGACCGCAACTGAAAAGTTGTTATCCTTGTCGTAAGACACTTGGATGGGTTGAAGTTCTGCACGTAGAAGCAAAAGGC | 0.788

Variant | fraction ligated
GAGACCGCAACTGAAAAGTTGTTATCACTTTCGTAAACACTTTGGATGGGTTGAAGTTCTGCACGTAGAAGCAAAAGGC | 0.811
GAGACCGCAACTGAAAAGTTGTTATCACTTGTCTAAGACACTTTGATGGGTTGAAGTTCTGCACGTAGAAGCAAAAGGC | 0.775
GAGACCGCAACTGAAAAGTTGTTATCCTTGTCGTAAGACACTTTGATGGGTTGAAGTTCTGCACGTAGAAGCAAAAGGC | 0.779
GAGACCGCAACTGAAAAGTTGTTATCACTTGTGTAAGCACTTTGGATGGGTTGAAGTTCTGCACGTAGAAGCAAAAGGC | 0.875
GAGACCGCAACTGAAAAGTTGTTATCCTTGTCGTAAACACTTTGGATGGGTTGAAGTTCTGCACGTAGAAGCAAAAGGC | 0.772
GAGACCGCAACTGAAAAGTTGTTATCATTGTCGTAAGACACTTGGATGGGTTGAAGTTCTGCACGTAGAAGCAAAAGGC | 0.806
GAGACCGCAACTGAAAAGTTGTTATCACTTTCGTAAGACACTTGGATGGGTTGAAGTTCTGCACGTAGAAGCAAAAGGC | 0.779
GAGACCGCAACTGAAAAGTTGTTATCACTGTCGTAAGAACTTTGGATGGGTTGAAGTTCTGCACGTAGAAGCAAAAGGC | 0.858
GAGACCGCAACTGAAAAGTTGTTATCATTGTCGTAAGAACTTTGGATGGGTTGAAGTTCTGCACGTAGAAGCAAAAGGC | 0.838
GAGACCGCAACTGAAAAGTTGTTATCACTGTCGTAAGACACTTGGATGGGTTGAAGTTCTGCACGTAGAAGCAAAAGGC | 0.812
GAGACCGCAACTGAAAAGTTGTTATCATTGTCGTAAACACTTTGGATGGGTTGAAGTTCTGCACGTAGAAGCAAAAGGC | 0.799
GAGACCGCAACTGAAAAGTTGTTATCATTGTCGTAAGACACTTTGATGGGTTGAAGTTCTGCACGTAGAAGCAAAAGGC | 0.776
GAGACCGCAACTGAAAAGTTGTTATCCTTGTCGTAAGACACTTTGGTGGGTTGAAGTTCTGCACGTAGAAGCAAAAGGC | 0.346
GAGACCGCAACTGAAAAGTTGTTATCCTTGTCGTAAGACACTTTGGAGGGTTGAAGTTCTGCACGTAGAAGCAAAAGGC | 0.00758
GAGACCGCAACTGAAAAGTTGTTATCACTTGCGTAAGACATTTGGATGGGTTGAAGTTCTGCACGTAGAAGCAAAAGGC | 0.847
GAGACCGCAACTGAAAAGTTGTTATCACTTGTGTAAACACTTTGGATGGGTTGAAGTTCTGCACGTAGAAGCAAAAGGC | 0.86
GAGACCGCAACTGAAAAGTTGTTATCACTTGTCTAAGAACTTTGGATGGGTTGAAGTTCTGCACGTAGAAGCAAAAGGC | 0.787
